This data set is described as follows: yeast display, Sf9 membrane polyspecificity reagent, FACS + sequencing; frameworks hold sequencing errors. The procedure, abridged: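 Sorting gates, low and high (top ~1%), were placed on anti-HA fluorescence to track expression and on streptavidin fluorescence to track reagent binding. A clone's polyreactivity label is taken from the gate it came out of. The reagent was 10% biotinylated, detergent-solubilized Sf9 membrane, applied for 1 hour at 4 °C to galactose-induced yeast display cells.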
For “QVQHVESGGGLVQAAGSLRLICYASGSIFGSYAMGWYRPAPGKERELVAAISSRGSRTYYADSVKGRFTISRDNAKNTVYLQMNSLKPEDTAVYYSNAGALTNYDYWGQGTQVTVSS”, the “polyreactivity (PSR sort gate)” value is “high polyreactivity”.

On to “QVQHVESGGGLVQAAGSLRLSCAASGTIFYWYTMGWYRQARGKERELVATITGSGSSTTYADSVKGRFTISRDNAKNSVYLQMNSLKPEDTAVYYCAKVYYIGIRGEYDYWGQGTQVTVSA”, for which the “polyreactivity (PSR sort gate)” value is reported as “low polyreactivity”.

In the case of “QVQHVESGGGLVQAGGNLRLSCPASGRTIYSYTMGWYRQTPGKERELVAAINRSGGRTYYADSVKGRFTISRDNAKNTVYLQMNSLKQEDTAVYYGNALEYYRYDYWGQGTQVTVSS”, the “polyreactivity (PSR sort gate)” value is on record as “high polyreactivity”. The same measure for “QVQHVESGGGLVQAGGRLSLICSASGGNIKFNAMGWYRQAPGKERELVAAITDGGSTYYADSVKGRFTISRDNAKNTVYLEMNSLKAEDTAVYYCNAEGVSLYGYDSGVDSGEDYWGQGTQVTVSS”: “low polyreactivity”; for “QVQHVESGGGLVQAGGSLLLSCAASGSIFASYAMGWYRQAPGKEREFVASISRSGGRTYYADSVKGRFTISRDNAKNTVYLQMKSLKPEDTAVYYCAAQPSSYVYYRQPFHYWGQGTQVTVSS”: “high polyreactivity”. In the case of “QVQHVESGGGLVQAGGSLRLRCAASGFTFGSYAMGWYRQAPGKERELVASISSAGRTYYADSVKGRITISRDNAKNSVYLQMNSLKPEDTAVYYCNTDARVTIYDYDYWGQGTQVTVSS”, the “polyreactivity (PSR sort gate)” value is reported as “low polyreactivity”. With “QVQHVESGGGLVQAGGSLRLRCAASGITSRYNDMGWSRQAPGKERELVATITWRGVSTYYADSVKGRFTISRDNAKNTVYVQMNSLKPEDTAVYYCAARRPGYYPYKGFDYWGQGTQVTVSS”, the “polyreactivity (PSR sort gate)” value is recorded as “high polyreactivity”.

As to “QVQHVESGGGLVQAGGSLRLRCAASGRTFKKYAMGWYRQAPGKAWELVAAITGSGGSTYYADSVKGRFTFSRDNAKNTVYLQMNRLKPEDTAVYYCAAYAYGVWQSQDGGNYWGQGTQVTVSS”, the “polyreactivity (PSR sort gate)” value is recorded as “low polyreactivity”. Take “QVQHVESGGGLVQAGGSLRLRCAASGSIFVHNDMGWYRQAPGKERDLVAAISSGSSTNYADSVKGRFTISRDNAKNTVFLQMNSLKPEDTAVYYCAVTSPYSHGYSYWGADSRDYWGQGTQVTVSS”: the “polyreactivity (PSR sort gate)” value is reported as “low polyreactivity”. As to “QVQHVESGGGLVQAGGSLRLSCAASGFIFDFNAMGRYRPPPGKERELVATISSDGSTNYADSVKGRFTISRDNAKNTVYLQMNSLKPEDTAVYYCNKDSHKDAGTLPGWWYDYWGQGTQVTVSS”, the “polyreactivity (PSR sort gate)” value is recorded as “low polyreactivity”. For “QVQHVESGGGLVQAGGSLRLSCAASGFIFGVYDMGWYRQAPGKERELVAAIDCVGSTYYADSVKGRFTISRDNAKNTVYLQMNSLKPEDTAGYYCNAARSRLYYDKYYYWGQGTQVTVSS”, the “polyreactivity (PSR sort gate)” value is “low polyreactivity”. In the case of “QVQHVESGGGLVQAGGSLRLSCAASGFIFRNYAMGWYRQAPGKERELVAAISSRGGSTYYADSVKGRFTISRDNAKNTVYLQMNRLKPEVTAVYYCARRYFYTYGYWGQGSQVTVSS”, the “polyreactivity (PSR sort gate)” value is “high polyreactivity”. With “QVQHVESGGGLVQAGGSLRLSCAASGFIFYDKAMGRYRTAPGKERELVAGITYRTGSTFYADSVKGRFTISRDNAKNTVYLQMISLKPEDTAVFYCAAVRRISWYTPVNTRRYYYWGQGTQVTVSS” the entry was “high polyreactivity”. On to “QVQHVESGGGLVQAGGSLRLSCAASGFIFYIYAMGWYRQAPGKERELVAAITSGGSTYYADSVKGRFTISRDNAKNTVYFQMNSLKPEDTAVFYCNRRSGHVHEYDYWGQGTQVTVSS”, for which the “polyreactivity (PSR sort gate)” value is reported as “low polyreactivity”. With “QVQHVESGGGLVQAGGSLRLSCAASGFIFYKYAMGWYRQAPGKERELVAAISKRGGSTYYADSVKGRFTISRDNAKNTVYLQMNSLKPEDTAVYYCATDGGNSATVRYVASDYWGQGTQVTVSS” the entry was “high polyreactivity”; with “QVQHVESGGGLVQAGGSLRLSCAASGFNFAYNIMGWYRQAPGKERELVADISGTGSTNYADSVKGRFTISRDNAKNTVYLQMNSLKPEDTAVYYCATSGDRLVWGQGTQVTVSS”, “low polyreactivity”. As to “QVQHVESGGGLVQAGGSLRLSCAASGFTFSKYGMGWYRQAPGKERELVAAISGSGGNTYYADSVKGRFTISRDNAKNTVYLQMNSLKPEDTAVYYCNAEGWRYYYWYHEYGYWGQGTQVTVSS”, the “polyreactivity (PSR sort gate)” value is “low polyreactivity”. “QVQHVESGGGLVQAGGSLRLSCAASGFTFYGNALGWYRQAPGKERELVAAITSGGSTYYADSVKGRFTISRDNAKNTVYLQMNSLKPDDTAVYYCAADEVLYGYEYWGQGTQVTVSS”: the “polyreactivity (PSR sort gate)” value is “low polyreactivity”. With “QVQHVESGGGLVQAGGSLRLSCAASGFTFYSYVMGWYRQAPGKERELVAAITRGGSTYYADSVKGRFTISRDNAKNTVYLQMTSLKPEDTAVYYCAKRPSYGYNYWGHGTQVTVSS”, the “polyreactivity (PSR sort gate)” value is recorded as “low polyreactivity”. In the case of “QVQHVESGGGLVQAGGSLRLSCAASGGTFLANAMGWYRQAPGKERELVAAISWRGGSTRYADSVKGRFTISRDNAKNTVYLQMNSLKPEDTAVYYCAARYLYFTGFYYWGQGTQVTVSS”, the “polyreactivity (PSR sort gate)” value is reported as “high polyreactivity”. The same measure for “QVQHVESGGGLVQAGGSLRLSCAASGIFFFYGMGWYRQAPGKQRQLLAVISTGDTTDYADSVKGRSTISRDNAKNTVYLQMNSLIPEDTAVYYCAATGRSRSYSWSKLNYWGQGTQVTVSS”: “low polyreactivity”; for “QVQHVESGGGLVQAGGSLRLSCAASGIIFYDKTMGWYRQAPGKERELVASITWRGGSTYYADSVKGRFTISRDNAKNTVYLQMNSLKPEDTAVYYCNADSSDDYDYWGQGTQVTVSS”: “low polyreactivity”. Consider “QVQHVESGGGLVQAGGSLRLSCAASGIIFYDYTMGWYRQAPGKERELVAVITNGDTTYYADSVKGRFTISRDNAKNTVYLQMNSLKPEDTAVYYCAADKRPPYILDYWGQGTQVTVSS”, for which the “polyreactivity (PSR sort gate)” value is reported as “high polyreactivity”. As for “QVQHVESGGGLVQAGGSLRLSCAASGITFYRYAMGWYIQAPGKERELVAAINASGGSTYYADSVKGRFTISRDKAKNTVYLQMNSLKPEDTAVYYCAADRVSWVKHYYWGQGTKVTVSS”, the “polyreactivity (PSR sort gate)” value is “high polyreactivity”. For the sequence “QVQHVESGGGLVQAGGSLRLSCAASGITFYVNDMGWSRQAPGKEREFVAAISYRGGSPYYADSVKGRFTFSRDNAKNTVYLKMNSLKPEDTAVYYCAADYNYWSPHRYDYWGQGTQVTVSS”, the “polyreactivity (PSR sort gate)” value is reported as “low polyreactivity”. With “QVQHVESGGGLVQAGGSLRLSCAASGLTFELYAMGWYRQAPGKERELVAAITWSGGRTYDADSVKGRFTISRDNAKNTVYLQMNSLKPEDTAVYYCAADVYPGYVGSQEYDYWGQGTQVTVSS” the entry was “low polyreactivity”; with “QVQHVESGGGLVQAGGSLRLSCAASGLTFRVYAMGWYRQEPGKERELVAAITGGGGSTYADSVKGRFTISRENAKNTVYLQMNSLNPDDTAVYYCNIKGYYYKFDYWGQGTQVTVSS”, “low polyreactivity”. The same measure for “QVQHVESGGGLVQAGGSLRLSCAASGQIYNQNAMGWYRQAPGKERELVAAISYRGGSTYYADSVKGRFTISRDNAKNTVYLQMNSLKPEDTADYYCAAARSGSGGKQFDHGFNYWGQGTQVTVSS”: “high polyreactivity”; for “QVQHVESGGGLVQAGGSLRLSCAASGRIFGPYAMGWYRQAPGKEREFVAVITYSSGSTYYADSVKWRFTISRDNAKNTVYLQMNSLKPEDTAVYYCAARLIRSYYYGRYDYWGQGTQVTVSS”: “high polyreactivity”. With “QVQHVESGGGLVQAGGSLRLSCAASGRIFHYNAMGWYRQAPGKERELVAAITWIGGSTYADSVKGRFTISRDNAKNTVYLQMNSLKPEDTAVYYCNARYIYRFDYWGQGTQVTVSS” the entry was “low polyreactivity”.

These data come from the nanobody polyreactivity screen of Harvey et al. (2022).
